Results published in paper PMC6778195.

Key:
ICAM-1^D1D5-Fc [1] = target: ICAM-1^D1D5-Fc (UniProt P05362); assay: SPR; settings: for response: top curve of the dilution series (500 nM), read at end of injection (~300 s), parent: est. 240, read off a plot
ICAM-1^D1D5-Fc [2] = target: ICAM-1^D1D5-Fc (UniProt P05362); assay: SPR; ICAM-1^D1D5-Fc immobilized to 850 RU on a CM5 chip precoupled with Protein A; IT4var13 DBLβ proteins 0.9 nM to 250 nM injected at 30 µL/min, 240 s association, 600 s dissociation; 20 mM Hepes, 300 mM NaCl, 0.005% Tween 20, pH 7.2; Biacore T200; global fit to a 2-state reaction model

ICAM-1^D1D5-Fc, sequence (P05362 28-480): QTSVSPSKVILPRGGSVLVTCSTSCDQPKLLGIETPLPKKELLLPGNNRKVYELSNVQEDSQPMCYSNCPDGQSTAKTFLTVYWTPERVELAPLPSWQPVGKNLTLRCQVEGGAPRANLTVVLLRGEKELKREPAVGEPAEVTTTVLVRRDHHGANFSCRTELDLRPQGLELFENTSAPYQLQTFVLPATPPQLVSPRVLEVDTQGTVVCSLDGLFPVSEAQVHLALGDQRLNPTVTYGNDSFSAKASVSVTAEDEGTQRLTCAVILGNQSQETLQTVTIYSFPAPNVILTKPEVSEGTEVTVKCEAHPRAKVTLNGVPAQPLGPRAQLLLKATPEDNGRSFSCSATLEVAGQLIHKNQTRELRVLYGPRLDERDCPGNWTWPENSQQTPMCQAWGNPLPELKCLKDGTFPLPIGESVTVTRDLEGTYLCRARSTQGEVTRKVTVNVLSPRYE

Substance: J1a DBLβ domain (wild type) L1093D
- response (ICAM-1^D1D5-Fc [1]): 260 RU

Substance: IT4var13 DBLβ Q1103A (domain or fragment)
- fold decrease in affinity against wild type (ICAM-1^D1D5-Fc [2]): 200 fold

Substance: IT4var13 DBLβ domain (wild type) (domain or fragment)
- Kd (ICAM-1^D1D5-Fc [1]): 1.22 nM

Substance: J1a DBLβ domain (wild type) Y1097A
- response (ICAM-1^D1D5-Fc [1]): 25 RU

Substance: J1a DBLβ domain (wild type) L1096D
- response (ICAM-1^D1D5-Fc [1]): 140 RU

Substance: J1a DBLβ domain (wild type) G1117A
- response (ICAM-1^D1D5-Fc [1]): 35 RU
